Test results taken from patent US20130344053A1, “Methods of Modifying Insulin Signaling Using Biliverdin Reductase (BVR) and BVR Derived Peptides” (University of Rochester, priority 2010, published 2013).
Blank lines part the entries; values can stand above or below the molecule they belong to.

Key:
Type in all cases: biochemical
[1] = target: T1, insulin receptor kinase (IRK) (Homo sapiens, UniProt P06213); test: BVR phosphorylation by the insulin receptor tyrosine kinase (IRK); conditions: for reduction of extent of BVR phosphorylation by IRK compared with wtBVR: tyrosine point mutant as IRK substrate, 2 h at 30° C.; for BVR phosphorylation by IRK (mutant as substrate): tyrosine point or double mutant as IRK substrate
T1 construct: GST-hBVR fusion protein and the 48 kDa cytoplasmic domain of the β-subunit of IRK; purchased Biomol International (Plymouth, Pa.)
Description: FIGS. 7A-B illustrate BVR as a substrate for insulin receptor kinase. […] 10 μg purified wtBVR was incubated in 100 μl kinase assay buffer (pH 8.0) containing 0.1 μg IRK, 10 μM ATP, and 20 μCi [^32P]-ATP at 25° C. up to 4 h. The reaction was terminated by the addition of Laemmli buffer at different points of time as indicated. Samples were separated using 8% SDS-PAGE gel and transferred onto PVDF filter, and phosphorylated protein bands were visualized by autoradiography. […] From left to right lane 1, wtBVR plus IRK in the presence of 50 mM EDTA (pH 8.0); lane 2, wtBVR plus IRK; lane 3, wtBVR in the absence of IRK. The reaction mixtures were subjected to SDS-PAGE electrophoresis and transferred onto a polyvinylidene fluoride (“PVDF”) filter. The blot was immuno-stained with anti-phosphotyrosine antibodies and ECL detection system was used to visualize phosphorylated tyrosines. […] In FIG. 8A the Y^198 residue of BVR is phosphorylated by IRK. Purified wtBVR and Y^198 mutant BVR were incubated with IRK at 30° C. for 2 h. Samples were subjected to SDS-PAGE electrophoresis and processed as described in FIG. 8B. FIG. 8B is a time course of Y^198 mutant BVR phosphorylation by IRK. A purified preparation of human BVR that carried Y^198 mutation was incubated with IRK for up to 3 h as described in FIG. 7A. Samples taken at the indicated time-points were analyzed for detection of phosphorylated proteins as above. […] Subsequently, samples were subjected to SDS-PAGE, stained with Coomassie blue and visualized bands were excised and used for measurement of radioactive content. The experiments were repeated three times. […] The indicated double mutants of BVR were used as substrates for IRK and analysis was carried out as in FIG. 8A. FIGS. 10A-B illustrate that autophosphorylation of BVR is an Mn^+2 dependant kinase reaction. […] The effects of different metal ions (30 mM MnCl2, 20 mM MgCl2, 20 mM CaCl2, 20 mM Zn acetate) and their combinations were analyzed as indicated in the text. […] The reactions were carried out in HEPES buffer (pH 8.0) in the presence of 20 mM MgCl2 as described in the Examples. Phosphorylation of BVR by IRK was examined using GST-hBVR fusion protein and the 48 kDa cytoplasmic domain of the β-subunit of IRK. BVR (5 μg) was incubated in 50 μl of IRK kinase buffer containing 50 mM HEPES (pH 8.0), 20 mM MgCl2, 1 mM DTT in the presence of 0.05 μg IRK and 10 μM ATP labeled with 10 μCi [γ-^32P]-ATP. The reaction was started with the addition of labeled ATP and incubated for 2-4 h. Reactions were terminated by addition of Laemmli sample buffer and boiled for 3 min. Samples were subjected to 8% SDS-PAGE and transferred to PVDF membranes for autoradiography.

BVR = target: T2, BVR (Homo sapiens, UniProt P53004, A154S/E160D/G155D); test: Phosphorylation of IRS-1 peptides by BVR; conditions: peptide as substrate for BVR kinase
T2 construct: made in house; host or cells: E. coli (pGEX 4T-2/hBVR)
T2 sequence (P53004 3-296 A154S/G155D/E160D): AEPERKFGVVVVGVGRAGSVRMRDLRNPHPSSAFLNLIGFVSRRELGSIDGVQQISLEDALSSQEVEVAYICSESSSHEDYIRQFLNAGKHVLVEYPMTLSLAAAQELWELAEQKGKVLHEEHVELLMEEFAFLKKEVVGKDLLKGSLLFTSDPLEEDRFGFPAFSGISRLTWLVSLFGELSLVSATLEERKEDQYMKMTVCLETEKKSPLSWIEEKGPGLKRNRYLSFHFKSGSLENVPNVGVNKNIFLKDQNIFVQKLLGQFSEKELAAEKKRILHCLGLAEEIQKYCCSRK
Description: (§1) To detect autophosphorylation of BVR, GST-hBVR of wild type (wt) and mutant variants were incubated in 50 mM HEPES buffer (pH 8.4) in the presence of 30 mM MnCl2 and 1 mM DTT for 2 h at 30° C. The reaction was started with the addition of 10 μM ATP labeled with 10 μCi [γ-^32P]-ATP and was stopped with the addition of Laemmli sample buffer. Samples were boiled for 3 min and applied to a 8% SDS-PAGE gels, transferred to a PVDF membrane, and then visualized by autoradiography. To measure kinase activity, GST-BVR (5 μg) was incubated in 5 μl kinase buffer containing 50 mM HEPES buffer (pH 8.4), 20 mM MgCl2, 30 mM MnCl2, 1 mM DTT and 10 μM ATP labeled with 10 μCi [γ-^32P]-ATP in the presence of 5 μg substrates: IRS-1 or Raytide or poly glu/tyr (4:1) for 2 h at 30° C. The reaction was started with the addition of ATP and terminated by adding 120 μl 10% H3PO4. 100 μl aliquots were directly transferred to P81 Whatman filters which were subsequently washed extensively in 0.75% phosphoric acid at room temperature. Finally, the filters were submerged in acetone for 5 min, dried, and retained counts were measured using a Beckman LS 6500 liquid scintillation counter (Beckman Coulter, Fullerton, Calif.).
The following experiments were conducted to determine whether IRS is a substrate for serine kinase activity of BVR or its tyrosine kinase activity. […]

human BVR = test: BVR autophosphorylation; conditions: pH 8.4, 30 mM MnCl2, 2 h at 30° C.
Description: In FIG. 9A, effect of tyrosine mutations of BVR on its autophosphorylation is shown. Human wtBVR and BVR with mutations in tyrosine were used in the experiment to determine autophosphorylation of BVR. The reactions were performed as described in the Examples. FIG. 9B is a graph showing that BVR tyrosine kinase activity was checked by incubating 5 μg purified BVR with 5 μg Raytide in 50 μl kinase buffer containing 10 μM labeled ATP for 2 h at 30° C. The aliquots of the reaction were transferred onto P81 Whatman filters and radioactivity due to phosphorylation was measured using a scintillation counter.
FIGS. 10A-B illustrate that autophosphorylation of BVR is an Mn^+2 dependant kinase reaction. […] The effects of different metal ions (30 mM MnCl2, 20 mM MgCl2, 20 mM CaCl2, 20 mM Zn acetate) and their combinations were analyzed as indicated in the text. […] Phosphorylation of wtBVR by IRK in the presence of tyrosine kinase inhibitor genestein (200 μM); DMSO was used as the vehicle for genestein and was included in the control reaction mixture. The reactions were carried out in HEPES buffer (pH 8.0) in the presence of 20 mM MgCl2 as described in the Examples.
as §1, with “To measure kinase activity, GST-BVR (5 μg) was incubated in 5 μl kinase buffer containing 50 mM HEPES buffer (pH 8.4), 20 mM MgCl2, 30 mM MnCl2, 1 mM DTT and 10 μM ATP labeled with 10 μCi [γ-^32P]-ATP in the presence of 5 μg substrates: IRS-1 or Raytide or poly glu/tyr (4:1) for 2 h at 30° C.” left out

T1 sequence (P06213 980-1382 limits assumed): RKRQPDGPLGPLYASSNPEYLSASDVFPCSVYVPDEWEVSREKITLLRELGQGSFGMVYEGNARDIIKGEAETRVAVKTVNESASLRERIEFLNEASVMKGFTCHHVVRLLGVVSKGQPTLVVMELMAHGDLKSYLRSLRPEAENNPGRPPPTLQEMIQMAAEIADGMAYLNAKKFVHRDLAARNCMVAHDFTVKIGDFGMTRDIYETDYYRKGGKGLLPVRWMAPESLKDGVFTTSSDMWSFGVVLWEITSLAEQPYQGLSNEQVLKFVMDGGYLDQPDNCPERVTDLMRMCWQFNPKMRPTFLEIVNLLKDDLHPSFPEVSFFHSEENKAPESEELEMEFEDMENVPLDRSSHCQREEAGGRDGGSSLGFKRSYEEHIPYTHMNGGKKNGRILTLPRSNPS

Molecule: O=C(O)CN(CCN(CC(=O)O)CC(=O)O)CC(=O)O [EDTA, reference compound]
phosphorylation of BVR by IRK in presence of EDTA ([1]; 50 mM EDTA (pH 8.0), 30° C., 2 h): abolished phosphorylation of BVR by IRK

Molecule: O=c1c(-c2ccc(O)cc2)coc2cc(O)cc(O)c12 [Genestein, reference compound]
BVR phosphorylation mediated by IRK in presence of PTK inhibitor ([1]; genestein 200 μM, HEPES pH 8.0, 20 mM MgCl2): significantly inhibited BVR phosphorylation mediated by IRK

B2: Y^198 plus Y^291: human BVR double mutant DQFMK and QKFCC (protein, UniProt P53004 3-296, looked up, variant Y198F Y291F)
Biliverdin reductase A: AEPERKFGVVVVGVGRAGSVRMRDLRNPHPSSAFLNLIGFVSRRELGSIDGVQQISLEDALSSQEVEVAYICSESSSHEDYIRQFLNAGKHVLVEYPMTLSLAAAQELWELAEQKGKVLHEEHVELLMEEFAFLKKEVVGKDLLKGSLLFTAGPLEEERFGFPAFSGISRLTWLVSLFGELSLVSATLEERKEDQFMKMTVCLETEKKSPLSWIEEKGPGLKRNRYLSFHFKSGSLENVPNVGVNKNIFLKDQNIFVQKLLGQFSEKELAAEKKRILHCLGLAEEIQKFCCSRK
BVR phosphorylation by IRK (mutant as substrate) [1]: little or no phosphorylation was detected

B3: Y^198 plus Y^228: human BVR double mutant DQFMK and NRFLS (protein, UniProt P53004 3-296, looked up, variant Y198F Y228F)
Biliverdin reductase A: AEPERKFGVVVVGVGRAGSVRMRDLRNPHPSSAFLNLIGFVSRRELGSIDGVQQISLEDALSSQEVEVAYICSESSSHEDYIRQFLNAGKHVLVEYPMTLSLAAAQELWELAEQKGKVLHEEHVELLMEEFAFLKKEVVGKDLLKGSLLFTAGPLEEERFGFPAFSGISRLTWLVSLFGELSLVSATLEERKEDQFMKMTVCLETEKKSPLSWIEEKGPGLKRNRFLSFHFKSGSLENVPNVGVNKNIFLKDQNIFVQKLLGQFSEKELAAEKKRILHCLGLAEEIQKYCCSRK
BVR phosphorylation by IRK (mutant as substrate) [1]: little or no phosphorylation was detected

Further lines, with some results ahead:

phosphorylation of IRS-1 peptide by BVR (BVR): 1198±230 cpm
Molecule: Arg-Thr-Glu-Ser^307-Ile-Thr-Ala-Thr-Ser^312-Pro-Ala-Ser^315-Met-Val-Gly-Gly-Lys-Pro (RTESITATSPASMVGGKP; Biliverdin reductase peptide) [second IRS-1 peptide (#2), IRS-1 peptide containing S^307, S^312, and S^315]

phosphorylation of IRS-1 peptide by BVR (BVR): 1049±78 cpm
Molecule: Lys-Lys-His-Ala-Asp-Asp-Gly-Ala-Met-Pro-Met-Ser^312-Pro-Gly-Val-Ala (KKHADDGAMPMSPGVA; Biliverdin reductase peptide) [mutant IRS-1 peptide (#1), mutant IRS-1 peptide without tyrosine, only S^616 maintained]

reduction of extent of BVR phosphorylation by IRK compared with wtBVR [1]: 40%
B1: Y^228: human BVR point mutant NRYLS to NRFLS (protein, UniProt P53004 3-296, looked up, variant Y228F)
Biliverdin reductase A: AEPERKFGVVVVGVGRAGSVRMRDLRNPHPSSAFLNLIGFVSRRELGSIDGVQQISLEDALSSQEVEVAYICSESSSHEDYIRQFLNAGKHVLVEYPMTLSLAAAQELWELAEQKGKVLHEEHVELLMEEFAFLKKEVVGKDLLKGSLLFTAGPLEEERFGFPAFSGISRLTWLVSLFGELSLVSATLEERKEDQYMKMTVCLETEKKSPLSWIEEKGPGLKRNRFLSFHFKSGSLENVPNVGVNKNIFLKDQNIFVQKLLGQFSEKELAAEKKRILHCLGLAEEIQKYCCSRK
autophosphorylation of BVR (mutants) (human BVR): did not result in significant changes in autophosphorylation of BVR

reduction of extent of BVR phosphorylation by IRK compared with wtBVR [1]: 49%
B4: Y^291: human BVR point mutant QKYCC to QKFCC (protein, UniProt P53004 3-296, looked up, variant Y291F)
Biliverdin reductase A: AEPERKFGVVVVGVGRAGSVRMRDLRNPHPSSAFLNLIGFVSRRELGSIDGVQQISLEDALSSQEVEVAYICSESSSHEDYIRQFLNAGKHVLVEYPMTLSLAAAQELWELAEQKGKVLHEEHVELLMEEFAFLKKEVVGKDLLKGSLLFTAGPLEEERFGFPAFSGISRLTWLVSLFGELSLVSATLEERKEDQYMKMTVCLETEKKSPLSWIEEKGPGLKRNRYLSFHFKSGSLENVPNVGVNKNIFLKDQNIFVQKLLGQFSEKELAAEKKRILHCLGLAEEIQKFCCSRK
autophosphorylation of BVR (mutants) (human BVR): did not result in significant changes in autophosphorylation of BVR
